Experimental data published in US20220162327A1, “ANTI-CCR5 AGENTS AND METHODS OF TREATMENT THAT BLOCK CANCER METASTASIS OR ENHANCE CELL DEATH INDUCED BY DNA DAMAGING CHEMOTHERAPY” (CytoDyn Inc., priority 2019, published 2022).
Read-outs that look alike come from different tables or passages of the source.

Assays:
CCR5 [1] = target: T1, CCR5 (Homo sapiens, UniProt P51681); experiment: FACS binding of leronlimab to CCR5 in MDA-MB-231-CCR5 cells; design: expressed in transfected cells; host or cells: MDA-MB-231 human breast cancer cell line (MDA-MB-231-CCR5)
Description: A previously tested commercial APC conjugated mouse anti-human/mouse/rat CCR5 antibody from R&D (FAB1802A) (APC-αCCR5) was used as a positive control to assess CCR5 positive cells.

[2] = system: CCR5+ metastatic Triple Negative Breast Cancer; experiment: Phase Ib/II study, CTC/EMT/CAML assessment in blood (LifeTrac Assay); assay type: in vivo, human
Description: (§1) Each treatment cycle consisted of 21 days. […] This treatment regimen was used for all subjects enrolled in the mTNBC study, unless otherwise indicated.
The blood sample for circulating tumor cells (CTC) and cancer associated macrophage-like cells (CAMLs) assessment was collected at baseline and subsequently at Day 1 of each treatment cycle to assess changes in CTCs and CAMLs after treatment and to perform correlative analysis between CCR5 expression and PD-L1 expression.
Creatv Microtech has developed a size based technology and detection methodology (LifeTrac Assay) that enables the collection and characterization of all cancer associated cells in the blood i.e., CTCs, epithelial mesenchymal transition cells (EMTs) and CAMLs.[Adams Cytometry 2015, Adams RSC 2014]. The CellSieve™ filtration platform is used to capture CAMLs and CTCs.

CCR5 [3] = target: T1, CCR5; design: endogenous in cells; host or cells: CD4+ T cells; settings: cited from earlier work
[4] = system: CCR5+ metastatic Triple Negative Breast Cancer; experiment: Phase Ib/II study, tumor imaging; assay type: in vivo, human
Description: The primary objective of Phase 1b is to determine the safety, tolerability and maximum tolerate dose (MTD) of PRO 140 in patients with TNBC, when combined with carboplatin to define a recommended Phase II dose of the combination. The primary objective of phase 2b is to evaluate the impact on progression-free survival (PFS) of the combination PRO 140 and carboplatin in patients with CCR5+ TNBC previously treated with anthracyclines and taxanes in neoadjuvant and adjuvant setting.
The baseline target lesion was identified in the right upper lung at the size of 25 mm. The lesion was described as pleural based, major fissure, soft tissue density nodule in the right hilum.
as §1
Scans were taken at the end of every two cycles (every 6 weeks). The subject had Scan 1 after six weeks, a Scan 2 after 12 weeks, and Scan 3 after 18 weeks (Table 4).

[5] = Subject 706-001, C1D1, with carboplatin
[6] = Subject 706-001, C2D1, with carboplatin
[7] = Subject 706-001, C3D1, with carboplatin
[8] = Subject 706-001, C4D1, with carboplatin
[9] = Subject 706-001, C5D1, with carboplatin
[10] = Subject 706-001, C6D1, with carboplatin
[11] = second subject, after two weeks of treatment, with carboplatin
[12] = Subject 706-001, scan 3, with carboplatin
[13] = Subject 706-001, with carboplatin

T1 sequence (P51681 whole entry): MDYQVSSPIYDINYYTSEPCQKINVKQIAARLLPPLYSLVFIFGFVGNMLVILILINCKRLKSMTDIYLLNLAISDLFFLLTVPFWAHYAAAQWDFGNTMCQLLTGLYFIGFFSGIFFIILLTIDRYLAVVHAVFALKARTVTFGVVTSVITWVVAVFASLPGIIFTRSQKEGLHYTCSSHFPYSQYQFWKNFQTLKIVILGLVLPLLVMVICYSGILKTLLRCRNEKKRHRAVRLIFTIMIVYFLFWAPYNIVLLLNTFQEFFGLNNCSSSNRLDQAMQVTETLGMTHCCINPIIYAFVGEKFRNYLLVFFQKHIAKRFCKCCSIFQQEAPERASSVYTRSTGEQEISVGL

B1: leronlimab: humanized monoclonal antibody to CCR5; humanized version of the murine mAb PA14 (antibody, chains of the INN, looked up, V domains shown)
VH: EVQLVESGGGLVKPGGSLRLSCAASGYTFSNYWIGWVRQAPGKGLEWIGDIYPGGNYIRNNEKFKDKTTLSADTSKNTAYLQMNSLKTEDTAVYYCGSSFGSNYVFAWFTYWGQGTLVTVSS
VL: DIVMTQSPLSLPVTPGEPASISCRSSQRLLSSYGHTYLHWYLQKPGQSPQLLIYEVSNRFSGVPDRFSGSGSGTDFTLKISRVEAEDVGVYYCSQSTHVPLTFGQGTKVEIK
efficiency of binding to CCR5 positive cells (CCR5 [1]): 98%
efficiency of binding to CCR5 positive cells (CCR5 [1]; listed as PRO140): up to 98%
CAML-Total [2, 5]: 1
CTC-Total [2, 5]: 0
EMT-Total [2, 5]: 2
Largest CAML, PD-L1 [2, 5]: 47 μm
Number of Apoptotic CTC, PD-L1 [2, 5]: 0
Number of Apoptotic CTCs, CCR5 [2, 5]: 0
Number of CAMLs, CCR5 [2, 5]: 0
Number of CAMLs, PD-L1 [2, 5]: 1
Number of CTCs, CCR5 [2, 5]: 0
Number of CTCs, PD-L1 [2, 5]: 0
Number of EMTs, CCR5 [2, 5]: 1
Number of EMTs, PD-L1 [2, 5]: 1
CAML-Total [2, 6]: 3
CTC-Total [2, 6]: 0
EMT-Total [2, 6]: 0
Largest CAML, CCR5 [2, 6]: 27 μm
Largest CAML, PD-L1 [2, 6]: 69 μm
Number of Apoptotic CTC, PD-L1 [2, 6]: 0
Number of Apoptotic CTCs, CCR5 [2, 6]: 0
Number of CAMLs, CCR5 [2, 6]: 1
Number of CAMLs, PD-L1 [2, 6]: 2
Number of CTCs, CCR5 [2, 6]: 0
Number of CTCs, PD-L1 [2, 6]: 0
Number of EMTs, CCR5 [2, 6]: 0
Number of EMTs, PD-L1 [2, 6]: 0
Largest CAML, CCR5 [2, 7]: 39 μm
Largest CAML, PD-L1 [2, 7]: 30 μm
Number of Apoptotic CTC, PD-L1 [2, 7]: 0
Number of Apoptotic CTCs, CCR5 [2, 7]: 0
Number of CAMLs, CCR5 [2, 7]: 3
Number of CAMLs, PD-L1 [2, 7]: 1
Number of CTCs, CCR5 [2, 7]: 0
Number of CTCs, PD-L1 [2, 7]: 0
Number of EMTs, CCR5 [2, 7]: 0
Number of EMTs, PD-L1 [2, 7]: 0
CAML-Total [2, 8]: 1
CTC-Total [2, 8]: 0
EMT-Total [2, 8]: 0
Largest CAML, CCR5 [2, 8]: 0 μm
Largest CAML, PD-L1 [2, 8]: 31 μm
Number of Apoptotic CTC, PD-L1 [2, 8]: 0
Number of Apoptotic CTCs, CCR5 [2, 8]: 0
Number of CAMLs, CCR5 [2, 8]: 0
Number of CAMLs, PD-L1 [2, 8]: 1
Number of CTCs, CCR5 [2, 8]: 0
Number of CTCs, PD-L1 [2, 8]: 0
Number of EMTs, CCR5 [2, 8]: 0
Number of EMTs, PD-L1 [2, 8]: 0
CAML-Total [2, 9]: 3
CTC-Total [2, 9]: 0
EMT-Total [2, 9]: 0
Largest CAML, CCR5 [2, 9]: 33 μm
Largest CAML, PD-L1 [2, 9]: 56 μm
Number of Apoptotic CTC, PD-L1 [2, 9]: 0
Number of Apoptotic CTCs, CCR5 [2, 9]: 0
Number of CAMLs, CCR5 [2, 9]: 1
Number of CAMLs, PD-L1 [2, 9]: 2
Number of CTCs, CCR5 [2, 9]: 0
Number of CTCs, PD-L1 [2, 9]: 0
Number of EMTs, CCR5 [2, 9]: 0
Number of EMTs, PD-L1 [2, 9]: 0
CAML-Total [2, 10]: 8
CTC-Total [2, 10]: 0
EMT-Total [2, 10]: 0
CCR5 expression on cancer-associated cells ([2]; first subject, after approximately 11 weeks of treatment): large reductions in CCR5 expression
circulating tumor cells (CTC) or putative metastatic tumor cells in the peripheral blood ([2]; first subject, following 16 weeks of treatment): no detectable circulating tumor cells (CTC) or putative metastatic tumor cells
levels of CTC [2, 11]: no detectable levels of CTC
reduction in EMT cells [2, 11]: 70%
CAML count ([2]; second subject, following at least two weeks of treatment, initial count 45): 30
decrease of total CTC+EMT counts ([2]; third subject, first two weeks of treatment, with carboplatin): 75%
effect on cAMP levels (CCR5 [3]; added to CD4+ T cells alone): does not affect cAMP levels
effect on cAMP levels (CCR5 [3]; administered with CCL5): diminishes the effect of CCL5 on cAMP levels
decrease in size of target lesion [4, 12]: 20%
new lung nodules [4, 12]: no new lung nodules found
decrease in size of target lesion (as measured by tumor volume) [4, 13]: greater than 20%
new lymphadenopathy or metastatic disease on diagnostic CT chest, abdomen and pelvis [4, 13]: No new lymphadenopathy or metastatic disease reported
right hilar lymph node [4, 13]: resolved
maximum standardized uptake values (SUVs) of right lung metastasis ([4]; Subject 706-001, with carboplatin, previously 15.3): 6.8
